{"source": "paper PMC11707362", "about": "“Endothelial-secreted Endocan activates PDGFRA and regulates vascularity and spatial phenotype in glioblastoma” (Nature Communications, 2025)", "binders": {"B1": {"name": "recombinant His-tagged Endocan (ligand, UniProt Q9NQ30 20-184, looked up)", "chain": "WSNNYAVDCPQHCDSSECKSSPRCKRTVLDDCGCCRVCAAGRGETCYRTVSGMDGMKCGPGLRCQPSNGEDPFGEEFGICKDCPYGTFGMDCRETCNCQSGICDRGTGKCLKFPFFQYSVTKSSNRFVSLTEHDMASGDGNIVREEVVKENAAGSPVMRKWLNPR", "notes": "Endocan (ESM1 gene product), recombinant; the introduction describes the mature polypeptide as 165 amino acids; also called rEndocan; His6-Endocan; source: bought: R&D"}}, "key": {"[1]": {"molecular_target": "T1, Fc-tagged recombinant PDGFRA monomeric fragment (human, UniProt P16234 24-528)", "T1 construct": "PDGFRA (platelet-derived growth factor receptor alpha), human, recombinant 'monomeric fragment'; also called Fc-PDGFRA monomeric fragment; Fc-tagged rPDGFRA; source: bought: R&D", "test": "SPR; Biacore T200, CM5 chip, amine coupling, hPDGFRA immobilised, Endocan as analyte; HBS-EP (0.15 M NaCl, 3 mM EDTA, 0.005% P20, 0.01 M Hepes pH 7.4), 30 ul/min; KD = koff/kon at five concentrations; repeated with 1 and 10 ug/ml heparin without effect", "conditions": "both partners purified"}, "[2]": {"molecular_target": "T2, Fc-tagged recombinant PDGFRA monomeric fragment (human, UniProt P16234 24-528)", "T2 chain": "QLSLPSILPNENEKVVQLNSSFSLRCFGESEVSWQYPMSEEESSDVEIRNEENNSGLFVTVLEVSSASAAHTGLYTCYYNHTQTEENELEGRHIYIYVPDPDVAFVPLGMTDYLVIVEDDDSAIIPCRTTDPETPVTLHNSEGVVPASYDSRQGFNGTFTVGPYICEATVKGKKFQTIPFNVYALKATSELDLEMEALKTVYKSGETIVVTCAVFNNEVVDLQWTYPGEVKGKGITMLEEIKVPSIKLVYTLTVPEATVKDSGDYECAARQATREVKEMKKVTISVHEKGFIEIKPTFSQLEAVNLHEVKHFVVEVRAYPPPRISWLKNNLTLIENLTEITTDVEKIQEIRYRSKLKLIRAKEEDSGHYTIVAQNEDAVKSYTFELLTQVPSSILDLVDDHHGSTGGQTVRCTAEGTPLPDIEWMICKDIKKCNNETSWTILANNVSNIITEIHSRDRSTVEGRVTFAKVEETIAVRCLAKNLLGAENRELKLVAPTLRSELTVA", "test": "SPR"}}, "data": [{"binder": "B1", "values": [{"measurement": "Kd", "setting": "[1]", "result": 345, "unit": "nM"}, {"measurement": "koff", "setting": "[2]", "result": 0.045, "unit": "s⁻¹"}]}]}
